Reference: doi:10.1101/739813 (bioRxiv, 2019)
Where no end group is shown, it is not given here.

Experiments:
crystal structure = molecular target: the molecule itself; assay: crystal structure
[1] = molecular target: pRab8a(GTP): Rab8a (Q67L, residues 1-181) phosphorylated at T72, GTP-bound (UniProt P61006); assay: ITC
UniProt P61006, sequence (P61006 1-181 Q67L): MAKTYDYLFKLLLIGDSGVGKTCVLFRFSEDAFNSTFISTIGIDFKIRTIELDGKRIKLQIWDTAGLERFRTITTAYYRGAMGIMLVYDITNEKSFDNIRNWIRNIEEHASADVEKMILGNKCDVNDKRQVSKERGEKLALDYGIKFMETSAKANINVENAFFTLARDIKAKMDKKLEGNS

Kd [1]: 3.3 µM
Binder: His6-NRPRFTLQELRDVLQERNKLKSQLLVVQEELQCYKSG (peptide, UniProt Q969X0 129-165, looked up) [His6-RILPL2, phospho-Rab binding domain of RILPL2 (residues 129-165)]
binding result (crystal structure): binds
